± gives the uncertainty stated by the source.
B1: POU domain, class 2, transcription factor 1, residues 285 to 354; numbered along this chain, P14859 (parent)
chain: LEELEQFAKTFKQRRIKLGFTQGDVGLAMGKLYGNDFSQTTISRFEALNLSFKNMCKLKPLLEKWLNDAE

Variants of: B1
Assay: abundance fitness (aPCA) (normalised: wild type 0, dead -1); higher = more abundant; growth selection in yeast, the domain comes from the species named
Settings: Homo sapiens

| Variant | abundance fitness |
| --- | --- |
| LEELEQFCKTFKQRRIKLGFTQGDVGLAMGKLYGNDFSQTTISRFEALNLSFKNMCKLKPLLEKWLNDAE | -0.05 ± 0.038 |
| LEELEQFDKTFKQRRIKLGFTQGDVGLAMGKLYGNDFSQTTISRFEALNLSFKNMCKLKPLLEKWLNDAE | -0.968 ± 0.13 |
| LEELEQFFKTFKQRRIKLGFTQGDVGLAMGKLYGNDFSQTTISRFEALNLSFKNMCKLKPLLEKWLNDAE | -0.602 ± 0.063 |
| LEELEQFHKTFKQRRIKLGFTQGDVGLAMGKLYGNDFSQTTISRFEALNLSFKNMCKLKPLLEKWLNDAE | -0.499 ± 0.064 |
| LEELEQFIKTFKQRRIKLGFTQGDVGLAMGKLYGNDFSQTTISRFEALNLSFKNMCKLKPLLEKWLNDAE | -0.008 ± 0.054 |
| LEELEQFKKTFKQRRIKLGFTQGDVGLAMGKLYGNDFSQTTISRFEALNLSFKNMCKLKPLLEKWLNDAE | -0.72 ± 0.076 |
| LEELEQFLKTFKQRRIKLGFTQGDVGLAMGKLYGNDFSQTTISRFEALNLSFKNMCKLKPLLEKWLNDAE | -0.252 ± 0.029 |
| LEELEQFMKTFKQRRIKLGFTQGDVGLAMGKLYGNDFSQTTISRFEALNLSFKNMCKLKPLLEKWLNDAE | -0.205 ± 0.042 |
| LEELEQFNKTFKQRRIKLGFTQGDVGLAMGKLYGNDFSQTTISRFEALNLSFKNMCKLKPLLEKWLNDAE | -0.625 ± 0.14 |
| LEELEQFPKTFKQRRIKLGFTQGDVGLAMGKLYGNDFSQTTISRFEALNLSFKNMCKLKPLLEKWLNDAE | -0.447 ± 0.031 |
| LEELEQFQKTFKQRRIKLGFTQGDVGLAMGKLYGNDFSQTTISRFEALNLSFKNMCKLKPLLEKWLNDAE | -0.283 ± 0.045 |
| LEELEQFRKTFKQRRIKLGFTQGDVGLAMGKLYGNDFSQTTISRFEALNLSFKNMCKLKPLLEKWLNDAE | -0.154 ± 0.021 |
| LEELEQFSKTFKQRRIKLGFTQGDVGLAMGKLYGNDFSQTTISRFEALNLSFKNMCKLKPLLEKWLNDAE | -0.082 ± 0.03 |
| LEELEQFTKTFKQRRIKLGFTQGDVGLAMGKLYGNDFSQTTISRFEALNLSFKNMCKLKPLLEKWLNDAE | 0.004 ± 0.033 |
| LEELEQFVKTFKQRRIKLGFTQGDVGLAMGKLYGNDFSQTTISRFEALNLSFKNMCKLKPLLEKWLNDAE | 0.01 ± 0.028 |
| LEELEQFWKTFKQRRIKLGFTQGDVGLAMGKLYGNDFSQTTISRFEALNLSFKNMCKLKPLLEKWLNDAE | -0.528 ± 0.041 |
| LEELEQFARTFKQRRIKLGFTQGDVGLAMGKLYGNDFSQTTISRFEALNLSFKNMCKLKPLLEKWLNDAE | 0.011 ± 0.015 |
| LEELEQFAKCFKQRRIKLGFTQGDVGLAMGKLYGNDFSQTTISRFEALNLSFKNMCKLKPLLEKWLNDAE | -0.041 ± 0.036 |
| LEELEQFAKDFKQRRIKLGFTQGDVGLAMGKLYGNDFSQTTISRFEALNLSFKNMCKLKPLLEKWLNDAE | -0.08 ± 0.059 |
| LEELEQFAKEFKQRRIKLGFTQGDVGLAMGKLYGNDFSQTTISRFEALNLSFKNMCKLKPLLEKWLNDAE | 0.04 ± 0.041 |

| Variant | abundance fitness |
| --- | --- |
| LEELEQFAKFFKQRRIKLGFTQGDVGLAMGKLYGNDFSQTTISRFEALNLSFKNMCKLKPLLEKWLNDAE | 0.023 ± 0.039 |
| LEELEQFAKGFKQRRIKLGFTQGDVGLAMGKLYGNDFSQTTISRFEALNLSFKNMCKLKPLLEKWLNDAE | -0.047 ± 0.026 |
| LEELEQFAKHFKQRRIKLGFTQGDVGLAMGKLYGNDFSQTTISRFEALNLSFKNMCKLKPLLEKWLNDAE | 0.019 ± 0.063 |
| LEELEQFAKIFKQRRIKLGFTQGDVGLAMGKLYGNDFSQTTISRFEALNLSFKNMCKLKPLLEKWLNDAE | 0.01 ± 0.061 |
| LEELEQFAKKFKQRRIKLGFTQGDVGLAMGKLYGNDFSQTTISRFEALNLSFKNMCKLKPLLEKWLNDAE | -0.014 ± 0.037 |
| LEELEQFAKLFKQRRIKLGFTQGDVGLAMGKLYGNDFSQTTISRFEALNLSFKNMCKLKPLLEKWLNDAE | -0.013 ± 0.019 |
| LEELEQFAKMFKQRRIKLGFTQGDVGLAMGKLYGNDFSQTTISRFEALNLSFKNMCKLKPLLEKWLNDAE | -0.052 ± 0.029 |
| LEELEQFAKNFKQRRIKLGFTQGDVGLAMGKLYGNDFSQTTISRFEALNLSFKNMCKLKPLLEKWLNDAE | 0.004 ± 0.065 |
| LEELEQFAKPFKQRRIKLGFTQGDVGLAMGKLYGNDFSQTTISRFEALNLSFKNMCKLKPLLEKWLNDAE | -0.945 ± 0.073 |
| LEELEQFAKQFKQRRIKLGFTQGDVGLAMGKLYGNDFSQTTISRFEALNLSFKNMCKLKPLLEKWLNDAE | -0.012 ± 0.04 |
| LEELEQFAKRFKQRRIKLGFTQGDVGLAMGKLYGNDFSQTTISRFEALNLSFKNMCKLKPLLEKWLNDAE | -0.038 ± 0.026 |
| LEELEQFAKSFKQRRIKLGFTQGDVGLAMGKLYGNDFSQTTISRFEALNLSFKNMCKLKPLLEKWLNDAE | -0.027 ± 0.025 |
| LEELEQFAKVFKQRRIKLGFTQGDVGLAMGKLYGNDFSQTTISRFEALNLSFKNMCKLKPLLEKWLNDAE | -0.059 ± 0.02 |
| LEELEQFAKYFKQRRIKLGFTQGDVGLAMGKLYGNDFSQTTISRFEALNLSFKNMCKLKPLLEKWLNDAE | -0.063 ± 0.06 |
| LEELEQFAKTAKQRRIKLGFTQGDVGLAMGKLYGNDFSQTTISRFEALNLSFKNMCKLKPLLEKWLNDAE | -0.166 ± 0.029 |
| LEELEQFAKTCKQRRIKLGFTQGDVGLAMGKLYGNDFSQTTISRFEALNLSFKNMCKLKPLLEKWLNDAE | -0.11 ± 0.045 |
| LEELEQFAKTDKQRRIKLGFTQGDVGLAMGKLYGNDFSQTTISRFEALNLSFKNMCKLKPLLEKWLNDAE | -1.19 ± 0.48 |
| LEELEQFAKTEKQRRIKLGFTQGDVGLAMGKLYGNDFSQTTISRFEALNLSFKNMCKLKPLLEKWLNDAE | -1.12 ± 0.12 |
| LEELEQFAKTGKQRRIKLGFTQGDVGLAMGKLYGNDFSQTTISRFEALNLSFKNMCKLKPLLEKWLNDAE | -0.848 ± 0.034 |

Source: the Human Domainome abundance scans (Beltran et al. 2025)
